molecular target: CD33 naturally expressed on HL60 cells (human, UniProt P20138 18-364); assay: FACS
Sequence (P20138 18-364): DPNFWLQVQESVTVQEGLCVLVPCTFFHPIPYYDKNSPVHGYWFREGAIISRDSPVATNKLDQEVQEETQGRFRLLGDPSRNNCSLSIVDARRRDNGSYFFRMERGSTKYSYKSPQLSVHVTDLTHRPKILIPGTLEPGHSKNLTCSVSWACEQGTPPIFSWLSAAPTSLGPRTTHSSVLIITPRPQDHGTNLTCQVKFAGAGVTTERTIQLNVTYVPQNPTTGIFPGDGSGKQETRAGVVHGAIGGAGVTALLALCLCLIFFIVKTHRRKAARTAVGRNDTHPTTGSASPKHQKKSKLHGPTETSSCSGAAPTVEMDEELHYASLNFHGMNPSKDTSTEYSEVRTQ

| Binder | EC50 [nM] |
| --- | --- |
| QP42664412 (antibody) chain 1: DIVMTQSPDSLTVSLGERTTINCKSSQSVLDSSTNKNSLAWYQQKPGQPPKLLLSWASTRESGIPDRFSGSGSGTDFTLTIDSPQPEDSATYYCQQSAHFPITFGQGTRLEIKRTVAAPSVFIFPPSDEQLKSGTASVVCLLNNFYPREAKVQWKVDNALQSGNSQESVTEQDSKDSTYSLSSTLTLSKADYEKHKVYACEVTHQGLSSPVTKSFNRGEC chain 2: QVQLVQSGAEVKKPGESVKVSCKASGYTFTNYGMNWVKQAPGQGLEWMGWINTYTGEPTYADKFQGRVTMTTDTSTSTAYMEIRNLGGDDTAVYYCARWSWSDGYYVYFDYWGQGTSVTVSSASTKGPSVFPLAPSSKSTSGGTAALGCLVKDYFPEPVTVSWNSGALTSGVHTFPAVLQSSGLYSLSSVVTVPSSSLGTQTYICNVNHKPSNTKVDKKVEPKSCDKTHTCPPCPAPEAAGGPSVFLFPPKPKDTLMISRTPEVTCVVVDVSHEDPEVKFNWYVDGVEVHNAKTKPREEQYNSTYRVVSVLTVLHQDWLNGKEYKCKVSNKALPAPIEKTISKAKGQPREPQVYTLPPSREEMTKNQVSLSCAVKGFYPSDIAVEWESNGQPENNYKTTPPVLDSDGSFFLVSKLTVDKSRWQQGNVFSCSVMHEALHNRYTQKSLSLSPGKGGSHHHHHH chain 3: MEFGLSWLFLVAILKGVQCSYVLTQPSSVSVAPGQTATISCGGHNIGSKNVHWYQQRPGQSPVLVIYQDNKRPSGIPERFSGSNSGNTATLTISGTQAMDEADYYCQVWDNYSVLFGGGTKLTVLGGGGSGGGGSGGGGSITCPPPMSVEHADIWVKSYSLYSRERYICNSGFKRKAGTCSLTECVLNKATNVAHWTTPSLKCIR chain 4: not shown | 12 |
| QP42664421 (antibody) chain 1: DIVMTQSPDSLTVSLGERTTINCKSSQSVLDSSTNKNSLAWYQQKPGQPPKLLLSWASTRESGIPDRFSGSGSGTDFTLTIDSPQPEDSATYYCQQSAHFPITFGQGTRLEIKRTVAAPSVFIFPPSDEQLKSGTASVVCLLNNFYPREAKVQWKVDNALQSGNSQESVTEQDSKDSTYSLSSTLTLSKADYEKHKVYACEVTHQGLSSPVTKSFNRGEC chain 2: QVQLVQSGAEVKKPGESVKVSCKASGYTFTNYGMNWVKQAPGQGLEWMGWINTYTGEPTYADKFQGRVTMTTDTSTSTAYMEIRNLGGDDTAVYYCARWSWSDGYYVYFDYWGQGTSVTVSSASTKGPSVFPLAPSSKSTSGGTAALGCLVKDYFPEPVTVSWNSGALTSGVHTFPAVLQSSGLYSLSSVVTVPSSSLGTQTYICNVNHKPSNTKVDKKVEPKSCDKTHTCPPCPAPEAAGGPSVFLFPPKPKDTLMISRTPEVTCVVVDVSHEDPEVKFNWYVDGVEVHNAKTKPREEQYNSTYRVVSVLTVLHQDWLNGKEYKCKVSNKALPAPIEKTISKAKGQPREPQVYTLPPSREEMTKNQVSLSCAVKGFYPSDIAVEWESNGQPENNYKTTPPVLDSDGSFFLVSKLTVDKSRWQQGNVFSCSVMHEALHNRYTQKSLSLSPGKGGSHHHHHH chain 3: MEFGLSWLFLVAILKGVQCITCPPPMSVEHADIWVKSYSLYSRERYICNSGFKRKAGTCSLTECVLNKATNVAHWTTPSLKCIRGGGSGGGGGGGGSSYVLTQPSSVSVAPGQTATISCGGHNIGSKNVHWYQQRPGQSPVLVIYQDNKRPSGIPERFSGSNSGNTATLTISGTQAMDEADYYCQVWDNYSVLFGGGTKLTVL chain 4: not shown | 11.6 |
| QP42664415 (antibody) chain 1: DIVMTQSPDSLTVSLGERTTINCKSSQSVLDSSTNKNSLAWYQQKPGQPPKLLLSWASTRESGIPDRFSGSGSGTDFTLTIDSPQPEDSATYYCQQSAHFPITFGQGTRLEIKRTVAAPSVFIFPPSDEQLKSGTASVVCLLNNFYPREAKVQWKVDNALQSGNSQESVTEQDSKDSTYSLSSTLTLSKADYEKHKVYACEVTHQGLSSPVTKSFNRGEC chain 2: QVQLVQSGAEVKKPGESVKVSCKASGYTFTNYGMNWVKQAPGQGLEWMGWINTYTGEPTYADKFQGRVTMTTDTSTSTAYMEIRNLGGDDTAVYYCARWSWSDGYYVYFDYWGQGTSVTVSSASTKGPSVFPLAPSSKSTSGGTAALGCLVKDYFPEPVTVSWNSGALTSGVHTFPAVLQSSGLYSLSSVVTVPSSSLGTQTYICNVNHKPSNTKVDKKVEPKSCDKTHTCPPCPAPEAAGGPSVFLFPPKPKDTLMISRTPEVTCVVVDVSHEDPEVKFNWYVDGVEVHNAKTKPREEQYNSTYRVVSVLTVLHQDWLNGKEYKCKVSNKALPAPIEKTISKAKGQPREPQVYTLPPSREEMTKNQVSLSCAVKGFYPSDIAVEWESNGQPENNYKTTPPVLDSDGSFFLVSKLTVDKSRWQQGNVFSCSVMHEALHNRYTQKSLSLSPGKGGSHHHHHH chain 3: MEFGLSWLFLVAILKGVQCQVQLVQSGAEVKKPGESLKVSCKASGYTFTSYYMHWVRQAPGQGLEWMGIINPSGGSTSYAQKFQGRVTMTRDTSTSTVYMELSSLRSEDTAVYYCARGSAYYYDFADYWGQGTLVTVSSGGGGSGGGGSGGGGSITCPPPMSVEHADIWVKSYSLYSRERYICNSGFKRKAGTCSLTECVLNKATNVAHWTTPSLKCIR chain 4: not shown | 14.2 |

More lines, in order of falling EC50, values ahead:

| EC50 [nM] | Binder |
| --- | --- |
| 11.3 | QP42664406 (antibody) chain 1: DIVMTQSPDSLTVSLGERTTINCKSSQSVLDSSTNKNSLAWYQQKPGQPPKLLLSWASTRESGIPDRFSGSGSGTDFTLTIDSPQPEDSATYYCQQSAHFPITFGQGTRLEIKRTVAAPSVFIFPPSDEQLKSGTASVVCLLNNFYPREAKVQWKVDNALQSGNSQESVTEQDSKDSTYSLSSTLTLSKADYEKHKVYACEVTHQGLSSPVTKSFNRGEC chain 2: QVQLVQSGAEVKKPGESVKVSCKASGYTFTNYGMNWVKQAPGQGLEWMGWINTYTGEPTYADKFQGRVTMTTDTSTSTAYMEIRNLGGDDTAVYYCARWSWSDGYYVYFDYWGQGTSVTVSSASTKGPSVFPLAPSSKSTSGGTAALGCLVKDYFPEPVTVSWNSGALTSGVHTFPAVLQSSGLYSLSSVVTVPSSSLGTQTYICNVNHKPSNTKVDKKVEPKSCDKTHTCPPCPAPEAAGGPSVFLFPPKPKDTLMISRTPEVTCVVVDVSHEDPEVKFNWYVDGVEVHNAKTKPREEQYNSTYRVVSVLTVLHQDWLNGKEYKCKVSNKALPAPIEKTISKAKGQPREPQVYTLPPSREEMTKNQVSLSCAVKGFYPSDIAVEWESNGQPENNYKTTPPVLDSDGSFFLVSKLTVDKSRWQQGNVFSCSVMHEALHNRYTQKSLSLSPGKGGSHHHHHH chain 3: not shown chain 4: not shown |
| 8.39 | QP42664400 (antibody) chain 1: DIVMTQSPDSLTVSLGERTTINCKSSQSVLDSSTNKNSLAWYQQKPGQPPKLLLSWASTRESGIPDRFSGSGSGTDFTLTIDSPQPEDSATYYCQQSAHFPITFGQGTRLEIKRTVAAPSVFIFPPSDEQLKSGTASVVCLLNNFYPREAKVQWKVDNALQSGNSQESVTEQDSKDSTYSLSSTLTLSKADYEKHKVYACEVTHQGLSSPVTKSFNRGEC chain 2: QVQLVQSGAEVKKPGESVKVSCKASGYTFTNYGMNWVKQAPGQGLEWMGWINTYTGEPTYADKFQGRVTMTTDTSTSTAYMEIRNLGGDDTAVYYCARWSWSDGYYVYFDYWGQGTSVTVSSASTKGPSVFPLAPSSKSTSGGTAALGCLVKDYFPEPVTVSWNSGALTSGVHTFPAVLQSSGLYSLSSVVTVPSSSLGTQTYICNVNHKPSNTKVDKKVEPKSCDKTHTCPPCPAPEAAGGPSVFLFPPKPKDTLMISRTPEVTCVVVDVSHEDPEVKFNWYVDGVEVHNAKTKPREEQYNSTYRVVSVLTVLHQDWLNGKEYKCKVSNKALPAPIEKTISKAKGQPREPQVYTLPPSREEMTKNQVSLSCAVKGFYPSDIAVEWESNGQPENNYKTTPPVLDSDGSFFLVSKLTVDKSRWQQGNVFSCSVMHEALHNRYTQKSLSLSPGKGGSHHHHHH chain 3: not shown chain 4: not shown |
| 2.27 | QP42664269 (antibody) chain 1: DIVMTQSPDSLTVSLGERTTINCKSSQSVLDSSTNKNSLAWYQQKPGQPPKLLLSWASTRESGIPDRFSGSGSGTDFTLTIDSPQPEDSATYYCQQSAHFPITFGQGTRLEIKRTVAAPSVFIFPPSDEQLKSGTASVVCLLNNFYPREAKVQWKVDNALQSGNSQESVTEQDSKDSTYSLSSTLTLSKADYEKHKVYACEVTHQGLSSPVTKSFNRGEC chain 2: QVQLVQSGAEVKKPGESVKVSCKASGYTFTNYGMNWVKQAPGQGLEWMGWINTYTGEPTYADKFQGRVTMTTDTSTSTAYMEIRNLGGDDTAVYYCARWSWSDGYYVYFDYWGQGTSVTVSSASTKGPSVFPLAPSSKSTSGGTAALGCLVKDYFPEPVTVSWNSGALTSGVHTFPAVLQSSGLYSLSSVVTVPSSSLGTQTYICNVNHKPSNTKVDKKVEPKSCDKTHTCPPCPAPEAAGGPSVFLFPPKPKDTLMISRTPEVTCVVVDVSHEDPEVKFNWYVDGVEVHNAKTKPREEQYNSTYRVVSVLTVLHQDWLNGKEYKCKVSNKALPAPIEKTISKAKGQPREPQVYTLPPSREEMTKNQVSLSCAVKGFYPSDIAVEWESNGQPENNYKTTPPVLDSDGSFFLVSKLTVDKSRWQQGNVFSCSVMHEALHNRYTQKSLSLSPGKGGSHHHHHH chain 3: not shown chain 4: not shown |
| 1.97 | QP42884285 (antibody) chain 1: DIVMTQSPDSLTVSLGERTTINCKSSQSVLDSSTNKNSLAWYQQKPGQPPKLLLSWASTRESGIPDRFSGSGSGTDFTLTIDSPQPEDSATYYCQQSAHFPITFGQGTRLEIKTVAAPSVFIFPPSYVLTQPSSVSVAPGQTATISCGGHNIGSKNVHWYQQRPGQSPVLVIYQDNKRPSGIPERFSGSNSGNTATLTISGTQAMDEADYYCQVWDNYSVLFGGGTKLTVLRTVAAPSVFIFPPSDEQLKSGTASVVCLLNNFYPREAKVQWKVDNALQSGNSQESVTEQDSKDSTYSLSSTLTLSKADYEKHKVYACEVTHQGLSSPVTKSFNRGEC chain 2: QVQLVQSGAEVKKPGESVKVSCKASGYTFTNYGMNWVKQAPGQGLEWMGWINTYTGEPTYADKFQGRVTMTTDTSTSTAYMEIRNLGGDDTAVYYCARWSWSDGYYVYFDYWGQGTSVTVSSASTKGPQVQLVQSGAEVKKPGESLKVSCKASGYTFTSYYMHWVRQAPGQGLEWMGIINPSGGSTSYAQKFQGRVTMTRDTSTSTVYMELSSLRSEDTAVYYCARGSAYYYDFADYWGQGTLVTVSSASTKGPSVFPLAPSSKSTSGGTAALGCLVKDYFPEPVTVSWNSGALTSGVHTFPAVLQSSGLYSLSSVVTVPSSSLGTQTYICNVNHKPSNTKVDKKVEPKSCDKTHTCPPCPAPEAAGGPSVFLFPPKPKDTLMISRTPEVTCVVVDVSHEDPEVKFNWYVDGVEVHNAKTKPREEQYNSTYRVVSVLTVLHQDWLNGKEYKCKVSNKALPAPIEKTISKAKGQPREPQVYTLPPSREEMTKNQVSLSCAVKGFYPSDIAVEWESNGQPENNYKTTPPVLDSDGSFFLVSKLTVDKSRWQQGNVFSCSVMHEALHNRYTQKSLSLSPGKGGSHHHHHH chain 3: not shown chain 4: not shown |

From US20240383985A1 (published 2024)
